Measured values reported in IntAct's records for PubMed 23340509.

B1: Protein Tob2 (Homo sapiens), Q14106 (parent)
chain: MQLEIKVALNFIISYLYNKLPRRRADLFGEELERLLKKKYEGHWYPEKPLKGSGFRCVHIGEMVDPVVELAAKRSGLAVEDVRANVPEELSVWIDPFEVSYQIGEKGAVKVLYLDDSEGCGAPELDKEIKSSFNPDAQVFVPIGSQDSSLSNSPSPSFGQSPSPTFIPRSAQPITFTTASFAATKFGSTKMKKGGGAASGGGVASSGAGGQQPPQQPRMARSPTNSLLKHKSLSLSMHSLNFITANPAPQSQLSPNAKEFVYNGGGSPSLFFDAADGQGSGTPGPFGGSGAGTCNSSSFDMAQVFGGGANSLFLEKTPFVEGLSYNLNTMQYPSQQFQPVVLAN

Variants of: B1
Conditions: with pabp1_human PABPC1, P11940
pabp1_human PABPC1, P11940, sequence (P11940 whole entry): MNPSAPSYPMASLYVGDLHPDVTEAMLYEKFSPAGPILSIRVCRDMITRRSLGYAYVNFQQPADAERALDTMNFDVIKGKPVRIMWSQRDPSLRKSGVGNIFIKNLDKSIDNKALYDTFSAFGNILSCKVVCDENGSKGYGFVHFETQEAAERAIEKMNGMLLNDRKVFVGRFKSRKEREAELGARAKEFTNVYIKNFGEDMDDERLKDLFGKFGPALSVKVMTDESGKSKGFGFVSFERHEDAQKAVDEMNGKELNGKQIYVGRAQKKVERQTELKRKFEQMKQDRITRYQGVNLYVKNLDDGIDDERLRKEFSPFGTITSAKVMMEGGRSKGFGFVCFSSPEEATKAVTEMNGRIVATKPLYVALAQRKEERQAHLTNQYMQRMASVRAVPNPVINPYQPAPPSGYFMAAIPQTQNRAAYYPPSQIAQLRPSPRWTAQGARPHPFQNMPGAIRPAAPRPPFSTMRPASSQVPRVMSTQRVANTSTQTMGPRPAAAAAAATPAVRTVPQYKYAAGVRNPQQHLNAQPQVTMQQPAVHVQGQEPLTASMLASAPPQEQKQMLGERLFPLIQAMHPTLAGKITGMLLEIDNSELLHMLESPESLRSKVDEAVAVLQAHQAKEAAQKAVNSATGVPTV

| Variant | effect of a mutation on the interaction |
| --- | --- |
| MQLEIKVALNFIISYLYNKLPRRRADLFGEELERLLKKKYEGHWYPEKPLKGSGFRCVHIGEMVDPVVELAAKRSGLAVEDVRANVPEELSVWIDPFEVSYQIGEKGAVKVLYLDDSEGCGAPELDKEIKSSFNPDAQVAVPIGSQDSSLSNSPSPSFGQSPSPTFIPRSAQPITFTTASFAATKFGSTKMKKGGGAASGGGVASSGAGGQQPPQQPRMARSPTNSLLKHKSLSLSMHSLNFITANPAPQSQLSPNAKEAVYNGGGSPSLFFDAADGQGSGTPGPFGGSGAGTCNSSSFDMAQVFGGGANSLFLEKTPFVEGLSYNLNTMQYPSQQFQPVVLAN [F140A;F260A] | disrupting interaction |
